How the values were obtained:
Assay in all cases: MSD specificity profiling, coated protein, Camille at 100 nM
[1] = target: Trypsin inhibitor (Soybean) (Soybean)
Procedure: (§1) For this specificity profiling test the different proteins and controls were coated on two 384-well MSD plates with a concentration of 1 μg/ml at 4° C. over night. Plates were blocked with BSA and washed three times with PBS with 0.05% (v/v) Tween 20. Antibody samples were diluted to 100 nM and 10 nM in assay buffer (PBS with 0.5% (w/v) BSA, 0.05% (v/v) Tween 20). […] Samples and controls were incubated for three hours at room temperature. The plates were washed three times and 30 μl detection antibody (ECL-labeled anti-human Fab) were added per well and incubated for 1 h. After washing, MSD Read Buffer T with surfactant was added and electrochemiluminescence signals were detected using a Sector Imager 6000 (Meso Scale Discovery, Gaithersburg, Md., USA).

[2] = target: Anti-human Fc (Dianova, #109-005-098)
Procedure: as §1

human M-CSF = target: T1, human M-CSF (human, UniProt P09603 33-255, limits assumed)
T1 construct: also called M-CSF (human); CSF-1
T1 sequence: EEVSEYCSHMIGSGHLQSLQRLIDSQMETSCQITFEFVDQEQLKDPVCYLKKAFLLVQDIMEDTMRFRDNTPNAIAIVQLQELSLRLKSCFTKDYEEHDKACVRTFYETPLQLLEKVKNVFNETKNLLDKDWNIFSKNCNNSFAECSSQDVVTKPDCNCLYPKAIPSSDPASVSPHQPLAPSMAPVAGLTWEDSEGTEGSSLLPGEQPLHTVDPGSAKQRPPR
Procedure: as §1

Fibrinogen (bovine) = target: T2, Fibrinogen (bovine) (bovine, UniProt P02672 20-615; P02676 1-468; P12799 25-444)
T2 sequence (looked up) 1: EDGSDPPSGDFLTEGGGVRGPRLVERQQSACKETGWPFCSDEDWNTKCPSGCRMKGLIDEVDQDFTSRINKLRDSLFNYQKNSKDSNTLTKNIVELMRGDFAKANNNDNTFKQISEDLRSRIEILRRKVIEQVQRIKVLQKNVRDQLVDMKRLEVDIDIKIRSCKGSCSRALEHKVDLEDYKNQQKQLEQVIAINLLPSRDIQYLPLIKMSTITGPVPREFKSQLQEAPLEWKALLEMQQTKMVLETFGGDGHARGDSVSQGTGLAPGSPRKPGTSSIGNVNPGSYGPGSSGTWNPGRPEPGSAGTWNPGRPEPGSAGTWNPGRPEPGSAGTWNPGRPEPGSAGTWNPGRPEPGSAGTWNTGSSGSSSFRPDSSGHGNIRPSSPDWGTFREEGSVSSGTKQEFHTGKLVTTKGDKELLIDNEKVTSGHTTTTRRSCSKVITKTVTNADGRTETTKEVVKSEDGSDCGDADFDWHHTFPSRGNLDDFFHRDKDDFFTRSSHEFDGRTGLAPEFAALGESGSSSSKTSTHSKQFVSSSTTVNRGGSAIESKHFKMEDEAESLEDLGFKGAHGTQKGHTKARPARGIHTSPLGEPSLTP
T2 sequence (looked up) 2: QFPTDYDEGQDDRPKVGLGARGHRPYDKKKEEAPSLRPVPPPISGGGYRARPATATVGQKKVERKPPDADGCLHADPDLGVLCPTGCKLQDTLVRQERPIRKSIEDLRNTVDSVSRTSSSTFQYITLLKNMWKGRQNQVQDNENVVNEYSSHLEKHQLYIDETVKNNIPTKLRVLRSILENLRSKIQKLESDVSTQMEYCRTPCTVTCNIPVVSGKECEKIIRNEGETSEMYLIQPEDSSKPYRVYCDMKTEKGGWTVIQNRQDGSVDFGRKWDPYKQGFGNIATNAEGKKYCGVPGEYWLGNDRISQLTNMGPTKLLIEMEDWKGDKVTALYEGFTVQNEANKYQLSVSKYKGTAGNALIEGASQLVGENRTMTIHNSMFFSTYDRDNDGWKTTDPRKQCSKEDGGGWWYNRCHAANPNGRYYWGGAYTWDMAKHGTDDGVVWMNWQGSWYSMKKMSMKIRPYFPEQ
T2 sequence (looked up) 3: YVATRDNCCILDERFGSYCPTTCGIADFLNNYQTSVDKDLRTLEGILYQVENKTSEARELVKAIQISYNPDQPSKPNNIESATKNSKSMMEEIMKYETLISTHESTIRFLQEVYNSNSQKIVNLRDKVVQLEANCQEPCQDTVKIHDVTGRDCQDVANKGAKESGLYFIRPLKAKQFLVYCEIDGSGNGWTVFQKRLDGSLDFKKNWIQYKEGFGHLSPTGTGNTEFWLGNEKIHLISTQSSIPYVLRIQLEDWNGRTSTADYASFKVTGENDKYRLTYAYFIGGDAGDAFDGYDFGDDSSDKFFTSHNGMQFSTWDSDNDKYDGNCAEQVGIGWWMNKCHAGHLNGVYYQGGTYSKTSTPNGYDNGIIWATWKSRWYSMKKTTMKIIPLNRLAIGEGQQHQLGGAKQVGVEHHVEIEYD
Procedure: as §1

Cytokine 1 (human) = Cytokine 1 (human) (human)
Procedure: as §1

Transferrin (bovine) = Transferrin (bovine) (bovine, UniProt Q29443 20-704)
Procedure: as §1

Lectin (Lens culinaris) = target: T3, Lectin (Lens culinaris) (Lens culinaris, UniProt P02870 31-210; P02870 218-269, limits assumed)
T3 sequence (looked up) 1: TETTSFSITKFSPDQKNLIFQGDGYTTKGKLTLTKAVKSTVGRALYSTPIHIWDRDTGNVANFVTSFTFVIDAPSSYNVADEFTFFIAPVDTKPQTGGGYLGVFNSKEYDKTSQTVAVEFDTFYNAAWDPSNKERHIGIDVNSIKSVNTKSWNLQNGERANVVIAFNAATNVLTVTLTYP
T3 sequence (looked up) 2: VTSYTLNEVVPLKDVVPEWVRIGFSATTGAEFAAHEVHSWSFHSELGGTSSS
Procedure: as §1

Trypsin inhibitor (Soybean) (Soybean), sequence (P01070 25-205): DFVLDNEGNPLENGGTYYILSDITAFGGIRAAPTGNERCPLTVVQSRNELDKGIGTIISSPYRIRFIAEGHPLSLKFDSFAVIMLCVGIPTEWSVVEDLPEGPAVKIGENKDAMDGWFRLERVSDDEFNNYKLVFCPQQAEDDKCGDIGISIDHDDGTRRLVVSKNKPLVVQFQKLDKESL
Transferrin (bovine), sequence (Q29443 20-704 limits assumed): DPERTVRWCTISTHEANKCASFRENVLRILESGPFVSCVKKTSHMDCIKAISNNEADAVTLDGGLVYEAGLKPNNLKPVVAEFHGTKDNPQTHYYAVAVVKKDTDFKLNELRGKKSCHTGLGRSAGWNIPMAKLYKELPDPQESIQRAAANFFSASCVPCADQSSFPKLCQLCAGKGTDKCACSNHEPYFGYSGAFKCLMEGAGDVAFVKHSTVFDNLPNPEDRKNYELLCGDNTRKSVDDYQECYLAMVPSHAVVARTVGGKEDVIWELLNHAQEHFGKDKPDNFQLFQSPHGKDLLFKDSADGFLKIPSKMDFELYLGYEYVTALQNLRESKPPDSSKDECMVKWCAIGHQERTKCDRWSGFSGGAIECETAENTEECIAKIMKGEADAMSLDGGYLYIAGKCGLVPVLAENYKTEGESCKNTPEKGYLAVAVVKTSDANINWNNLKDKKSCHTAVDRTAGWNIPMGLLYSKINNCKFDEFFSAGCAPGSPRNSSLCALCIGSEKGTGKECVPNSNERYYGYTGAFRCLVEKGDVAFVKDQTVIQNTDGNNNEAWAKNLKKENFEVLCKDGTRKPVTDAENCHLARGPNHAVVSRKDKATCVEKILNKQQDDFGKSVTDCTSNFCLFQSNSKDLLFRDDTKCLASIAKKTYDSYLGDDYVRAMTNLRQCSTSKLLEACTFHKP

B1: Camille (format not stated) (antibody, V domains shown)
VH: QVQLQQSGPGLVKPSQTLSLTCAISGESVSTSSAAWNWIRQSPSRGLEWLGRTYYRSKWKHEYAVSVKSRITINPDTSKNQFSLQLNSVTPEDTAVYYCARDRYYYSAFDYWGQGTLVTVSS
VL: QSALTQPASVSGSPGQSITISCTGTSSDVGGYNSVSWYQQHPGKAPKLLIYAVSNRPSGVSNRFSGSKSGNTASLTISGLQAEDEADYYCASYDERFTRVFGGGTKLTVLG
notes: also called Antibody Camille
- signal normalized to reference antibody MOR03207 [1]: 1 ratio
- signal normalized to reference antibody MOR03207 [2]: 1 ratio
- signal normalized to reference antibody MOR03207 (human M-CSF): 24 ratio
- signal normalized to reference antibody MOR03207 (Fibrinogen (bovine)): 1 ratio
- signal normalized to reference antibody MOR03207 (Cytokine 1 (human)): 1 ratio
- signal normalized to reference antibody MOR03207 (Transferrin (bovine)): 1 ratio
- signal normalized to reference antibody MOR03207 (Lectin (Lens culinaris)): 1 ratio
